Source: patent US20230374087A1, “METHOD TO IMPROVE PROTEIN QUALITY CONTROL” (The Johns Hopkins University, priority 2020, published 2023)
Where a chain is given by its changes, count along the chain named. In names and notes the source's numbering stands.

T1: recombinant human CHIP peptide fragment containing residues 13-30, S20A
T1 chain: LGAGGGAPEKSPSAQELK

T2: recombinant human CHIP peptide fragment containing residues 13-30 (Uniprot Q9UNE7), WT
T2 chain: LGAGGGSPEKSPSAQELK

B1: human, active PKG1α purified from Sf9 cells (SRP0371, Sigma) (protein)
chain: SELEEDFAKILMLKEERIKELEKRLSEKEEEIQELKRKLHKCQSVLPVPSTHIGPRTTRAQGISAEPQTYRSFHDLRQAFRKFTKSERSKDLIKEAILDNDFMKNLELSQIQEIVDCMYPVEYGKDSCIIKEGDVGSLVYVMEDGKVEVTKEGVKLCTMGPGKVFGELAILYNCTRTATVKTLVNVKLWAIDRQCFQTIMMRTGLIKHTEYMEFLKSVPTFQSLPEEILSKLADVLEETHYENGEYIIRQGARGDTFFIISKGTVNVTREDSPSEDPVFLRTLGKGDWFGEKALQGEDVRTANVIAAEAVTCLVIDRDSFKHLIGGLDDVSNKAYEDAEAKAKYEAEAAFFANLKLSDFNIIDTLGVGGFGRVELVQLKSEESKTFAMKILKKRHIVDTRQQEHIRSEKQIMQGAHSDFIVRLYRTFKDSKYLYMLMEACLGGELWTILRDRGSFEDSTTRFYTACVVEAFAYLHSKGIIYRDLKPENLILDHRGYAKLVDFGFAKKIGFGKKTWTFCGTPEYVAPEIILNKGHDISADYWSLGILMYELLTGSPPFSGPDPMKTYNIILRGIDMIEFPKKIAKNAANLIKKLCRDNPSERLGNLKNGVKDIQKHKWFEGFNWEGLRKGTLTPPIIPSVASPTDTSNFDSFPEDNDEPPPDDNSGWDIDF
B2: CHIP-S20A: phospho-silenced (phospho-null) CHIP mutant, serine 20 to alanine (protein)
chain: MKGKEEKEGGARLGAGGGAPEKSPSAQELKEQGNRLFVGRKYPEAAACYGRVITRNPLVAVYYTNRALCYLKMQQHEQALADCRRALELDGQSVKAHFFLGQCQLEMESYDEAIANLQRAYSLAKEQRLNFGDDIPSALRIAKKKRWNSIEERRIHQESELHSYLSRLIAAERERELEECQRNHEGDEDDSHVRAQQACIEAKHDKYMADMDELFSQVDEKRKKRDIPDYLCGKISFELMREPCITPSGITYDRKDIEEHLQRVGHFDPVTRSPLTQEQLIPNLAMKEVIDAFISENGWVEDY
modifications: left off: small tags and cut ends
notes: phospho-silenced (phospho-null) CHIP mutant, serine 20 to alanine
B3: CHIP-WT: wild type carboxy terminus of Hsc70-interacting protein (CHIP), recombinant or adenovirus-expressed (protein)
chain: B2 chain with A19S
modifications: left off: small tags and cut ends
B4: CHIP-S20E: CHIP with serine 20 to glutamic acid phospho-mimetic substitution; recombinant protein, adenovirus-expressed, or knock-in mouse (protein)
chain: B2 chain with A19E
modifications: left off: small tags and cut ends
notes: CHIP with serine 20 to glutamic acid phospho-mimetic substitution; recombinant protein, adenovirus-expressed, or knock-in mouse

Key:
[1] = biological target: T1, recombinant human CHIP peptide fragment …
[2] = biological target: T2, recombinant human CHIP peptide fragment …
[3] = system: neonatal rat cardiomyocytes (NRCMs)
Experimental: After overnight culture, subsets of NRCMs were infected with adenovirus (AdV) containing a FLAG-tagged PDE5, FLAG control, Myc-tagged CHIP WT or K31A (provided by Dr. Cam Patterson), S20E or S20A (Welgen Inc., Worcester, MA). Forty-eight hours after infection, cells were exposed to either simulated ischemia (SI) or normal conditions. SI involved incubating cells in DMEM containing deoxyglucose (20 mM), NaCl (125 mM), KCl (8 mM), KH2PO4 (1.2 mM), MgSO4 (1.25 mM), CaCl2) (1.2 mM), NaHCO3(6.25 mM), sodium lactate (5 mM), and HEPES (20 mM) with a pH of 6.6. Cells were then placed in an incubator chamber (Billups-Rothenberg) with 95% nitrogen, 4% carbon dioxide, and 1% oxygen. Normoxic controls were incubated in DMEM supplemented with 10% FBS in air composed of 95% carbon dioxide and 5% oxygen. RNA or protein was harvested after 48 hours of SI. Cells were also treated with sildenafil (1 μM) or vehicle, or small interference RNA (siRNA, 100 pM) specific for rat Stub1 (Qiagen, Cat. #: SI01532251) or scrambled control provided 24 hours after plating and transfected with Xfect (Takara) per manufacturer protocol.
Lactate dehydrogenase (LDH) leakage and (3-[4,5-dimethylthiazol-2-yl]-2,5-diphenyltetrazolium bromide) (MTT) were assessed in cultured cardiomyocytes and media after SI from the same culture dish. LDH was assayed by commercial assay (Roche) following manufacturer's protocol, read in 96 well microplates on a Spectramax M5 (Molecular Devices) at 490 nm absorbance. For MTT, cells were washed in phosphate-buffered saline, MTT (Sigma-Aldrich) working solution added to the culture dish, incubated at 37° C., solubilized with acidic isopropanol, transferred to a 96 well plate, and read at 570 nm with background subtraction at 650 nm on a Spectramax M5.

ubiquitinated proteins = assay: Western blot of ubiquitinated proteins in NRCMs after SI; format: cell-based, rat; settings: adenovirus CHIP variant, SI 48 hours, compared to CHIP-WT
Experimental: (§1) Tissue and cultured cardiomyocytes were lysed in 1× lysis buffer (Cell Signaling Technology), protein concentration was measured by bicinchoninic acid assay (Pierce), and extracts were subjected to SDS-PAGE using Novex Tris-Glycine Gels (4-20% gradient gel, Life Technologies) or Mini-protean TGX Gels (4-20% gradient gel, Bio-Rad), transferred to nitrocellulose membranes, and probed with various primary antibodies (CHIP (#2080S), Hsc70 (#8444S), p-CHIP S20 (Custom antibody, AbMart Inc., Shanghai, China; Project: 25011-1), Myc (#2276S), GAPDH (#2118S), and α-tubulin (#3878S) (Cell Signaling) and ubiquitin antibody (#SAB4503053) from Sigma), and fluorescence-labeled secondary antibodies (Licor, #926-32211, 926-32210, 926-68023, or 926-68022). Gels were imaged (Odyssey, Licor) and band intensity quantified (Odyssey Software 3.1).

[4] = system: transthyretin (TTR) V122I; assay: TTR aggregates in NRCMs by confocal microscopy; format: cell-based, rat; settings: TTR V122I 5 μM, adenovirus, 14 days
Experimental: Neonatal rat cardiomyocytes (NRCMs) were cultured in mutant transthyretin (TTR) valine 122 to isoleucine (V122I)-containing medium (5 μM) and transfected with a Chip SE (serine 20 phospho-mimetic) or SA ([…] phospho-null) adenovirus and cultured for 14 days. Cardiomyocytes were stained with phalloidin (red), TTR (green), and nuclei with DAPI (blue).

TTR-V122I [5] = assay: TTR abundance in hiPSC-CMs by western blot; format: cell-based, human; settings: TTR-V122I 5 μM; for TTR accumulation with Lamp2A knockdown: siLamp2A 100 μM; for TTR accumulation: Ad-Chip 10 MOI
Experimental: (§2) Human induced pluripotent stem cell derived cardiomyocytes (hiPSC-CMs) were infected with Ad-Chip WT, SE, or SA (10 MOI), in the presence or absence of protein kinase G (PKG) stimulation via cGMP (100 mM) and exposed to media containing TTR-V122I (5 μM) or control for 14 days. Cells were lysed and TTR abundance was determined by western blotting for TTR with a total protein stain used to show equal loading.
as §2, with “Lamp2A knockdown” for “protein kinase G (PKG) stimulation”, “siRNA (siLamp2A, 100 μM)” for “cGMP (100 mM)”, “loading. Knocking down Lamp2A removes the method of protein degradation known as chaperone mediated autophagy (CMA).” for “loading.”

Hsc70 = biological target: T3, Hsc70 (Rattus norvegicus, UniProt P63018); assay: CHIP-Hsc70 co-immunoprecipitation from myocyte lysate; format: cell-based; settings: myocytes with or without SI, Hsc70 as bait
T3 construct: lysate from myocytes with or without exposure to SI were immunoprecipitated using Hsc70 as bait; endogenous in cells; host or cells: neonatal rat cardiomyocytes infected with adenovirus for Myc-tagged CHIP WT, S20E or S20A
Experimental: as §1
To test whether thermodynamic stabilization of CHIP-HSC70 due to S20 phosphorylation enhances protein binding, lysate from myocytes with or without exposure to SI were immunoprecipitated using Hsc70 as bait. […] Reduced CHIP-Hsc70 interaction was also observed in vivo following MI in hearts with PKG activation suppressed by mPDE5A/oe, whereas this was enhanced in WT hearts (FIG. 5C, FIG. 14B).

[6] = biological target: T4, Hsp40-stimulated ATPase activity of Hsc70 (Homo sapiens, UniProt P11142); assay: Chaperone refolding ATPase activity assay; format: biochemical; settings: CHIP 0.5-6 μM, Hsc70 0.5 μM, Hsp40 0.25 μM
T4 construct: His-tag (N); made in house; host or cells: E. coli BL21(DE3)
Experimental: Human HSP40 (DnaJB1), human CHIP and CHIP point mutants in pET30a with a C-terminal His-tag and hHsc70 (HSPA8) wild type with an N-terminal His-tag in pCOLA-Duet1 were expressed in BL21(DE3) and purified on Ni-NTA (Qiagen). Hsc70 and CHIP proteins were induced and expressed for 22 hours at 18° C. Hsp40 protein was induced and expressed for 5 hours at 25° C. Required stock solutions of proteins were prepared by diluting high concentrated stocks in protein storage buffer into protein storage buffer, 20 mM HEPES (pH7.4), 150 mM NaCl. Hsc70 and Hsp40 were used at a concentration of 0.5 μM and 0.25 μM, respectively, with a gradient of CHIP protein concentrations (0.5-6 μM). Hsp40-stimulated ATPase activity of Hsc70 was measured using fluorescent polarization with the […]® ADP2 FP Assay (BellBrook Labs, 3010-1K) on a Clariostar plate reader (BMG) in 384 well black, non-binding plates (Greiner, 784900). Optimized instrument settings were used: Excitation wavelength. 590 nm; Emission wavelength: 675 nm; Required value: 5%; Target mP: 20; Gain A: 1824; Gain B: 1854; Focal Height: 12.4 mm. Values of μM ADP formed in the reactions were interpolated from an ATP/ADP standard curve run in parallel.

Hsp70 (385-641) = biological target: T5, Hsp70 (385-641) (Homo sapiens, UniProt P0DMV8); assay: Isothermal titration calorimetry of CHIP-Hsp70 binding; settings: ITC, 25° C.; for enthalpy (DH) / entropy (DS): triplicate, average ± SD
T5 construct: Hsp70 (385-641)
Experimental: Isothermal titration calorimetry was carried out using a TA Instruments NanoITC equilibrated at 25° C. and utilizing a stir speed of 600 rpm. Experiments were conducted in triplicate and data represents the average±one standard deviation. Titrations utilized 350 μM WT or S20E CHIP titrated into 50 µM Hsp70 (385-641) as a series of twenty four 2 μL injections.

TTR-V122I [7] = assay: TTR abundance in cardiac fibroblasts by western blot; format: cell-based; settings: neonatal rat cardiac fibroblasts, WT or SA 10 MOI, SE 0, 2.5, 5 or 10 MOI, TTR-V122I 5 μM, 14 days
Experimental: Fibroblasts were isolated from neonatal rat hearts and infected with Ad-Chip WT or SA (10 MOI) or SE (0, 2.5, 5, or 10 MOI) and exposed to media containing TTR-V122I (5 μM) for 14 days. Cells were lysed and TTR abundance was determined by western blotting for TTR with a total protein stain used to show equal loading.

myocardial infarction = assay: Myocardial infarction by coronary ligation in CHIP S20E knock-in mice
Excerpt: Male and female mice (aged ˜3-4 months) were subjected to transmural myocardial infarction by mid left anterior descending artery ligation under open thoracotomy (25). Controls underwent open chest surgery and LAD isolation without ligation. Data obtained 1-week after infarction included 2D echocardiography (Vevo2100, 20-MHz; Visualsonics) in conscious mice to measure LV volume and ejection fraction, with analysis blinded to study group.
Myocardium was fixed in 4% paraformaldehyde, paraffin embedded, and sectioned into 4 μm slices, and stained with Masson's Trichrome. Fibrosis was quantified by color-based pixel count and intensity in parallel sections of the ischemic and remote areas (Aperio Image Scope). Transmural infarct size was estimated as the arc angle subtended by dense scar in a mid-MI cross section divided by 360° and expressed as percent. Immunostaining for ubiquitin (Sigma) and CHIP (Cell Signaling) was performed using AlexaFluor 488 conjugated secondary antibodies following the manufacturer's protocol. Counterstain was performed using DAPI (Invitrogen) and Troponin-T (Thermo Scientific) antibodies. Image acquisition was performed on a Leica confocal microscope (TCS SPE II) at 40× magnification.

[8] = 14 days, no Lamp2A knockdown (Example 8)

T5 sequence (P0DMV8 385-641): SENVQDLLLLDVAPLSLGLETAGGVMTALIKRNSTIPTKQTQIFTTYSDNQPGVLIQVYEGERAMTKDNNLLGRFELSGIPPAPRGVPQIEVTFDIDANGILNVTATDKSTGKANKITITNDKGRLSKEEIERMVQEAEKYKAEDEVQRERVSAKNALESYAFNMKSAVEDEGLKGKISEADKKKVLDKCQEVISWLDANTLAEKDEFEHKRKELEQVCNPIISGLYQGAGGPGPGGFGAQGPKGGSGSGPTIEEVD
T4 sequence (P11142 whole entry): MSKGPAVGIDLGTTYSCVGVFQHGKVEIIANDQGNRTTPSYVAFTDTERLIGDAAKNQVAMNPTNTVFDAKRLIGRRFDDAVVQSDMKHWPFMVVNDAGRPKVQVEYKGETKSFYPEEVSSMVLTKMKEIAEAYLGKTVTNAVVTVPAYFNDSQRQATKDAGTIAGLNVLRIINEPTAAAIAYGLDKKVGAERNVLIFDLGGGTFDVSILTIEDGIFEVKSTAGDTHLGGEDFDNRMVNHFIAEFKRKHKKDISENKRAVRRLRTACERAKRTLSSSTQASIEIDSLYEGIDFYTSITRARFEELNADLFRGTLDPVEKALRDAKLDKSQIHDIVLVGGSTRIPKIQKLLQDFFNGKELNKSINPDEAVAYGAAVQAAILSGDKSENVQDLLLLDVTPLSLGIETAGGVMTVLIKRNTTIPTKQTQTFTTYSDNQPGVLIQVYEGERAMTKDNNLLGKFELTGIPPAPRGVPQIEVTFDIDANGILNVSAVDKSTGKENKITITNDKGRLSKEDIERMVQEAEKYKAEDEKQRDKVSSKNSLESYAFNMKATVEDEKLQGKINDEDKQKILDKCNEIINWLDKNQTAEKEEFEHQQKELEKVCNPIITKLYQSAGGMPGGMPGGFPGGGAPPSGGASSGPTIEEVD

Molecule | serine phosphorylation detected by mass spectrometry after incubation with cGMP/PKG [1] | serine phosphorylation detected by mass spectrometry after incubation with cGMP/PKG [2] | SI-induced cytotoxicity (LDH/MTT ratio) [3] | ubiquitinated proteins after SI (ubiquitinated proteins) | TTR positive aggregates [4] | TTR accumulation with Lamp2A knockdown (TTR-V122I [5]; 14 days) | co-precipitation of CHIP and Hsc70 (Hsc70) | inhibition of Hsp70 ATPase activity [6] | enthalpy (DH) (Hsp70 (385-641)) [kcal/mol] | entropy (DS) (Hsp70 (385-641)) [kcal/mol] | TTR accumulation (TTR-V122I [7]) | TTR accumulation (TTR-V122I [5]; 14 days (Example 7)) | TTR accumulation (TTR-V122I [5]; [8]) | increase of Hsp70 affinity as compared to CHIP-WT (Hsp70 (385-641)) [%] | more negative enthalpy as compared to CHIP-WT (Hsp70 (385-641)) [kcal/mol] | Kd (Hsp70 (385-641); read-out: increase of Hsp70 affinity as compared to CHIP-WT) [nM] | accumulation of ubiquitinated proteins after MI (myocardial infarction; knock-in mice vs littermate controls, peri-infarct zone) | mortality after MI (myocardial infarction; male homozygotes and heterozygotes vs littermate controls) | infarction size after MI (myocardial infarction; male knock-in mice vs littermate controls) | heart function after MI (myocardial infarction; male knock-in mice vs littermate controls, echocardiography)
B1 | Phosphorylation was also observed at neighboring S24 and S26, but only when a S20A CHIP mutant was used | Phosphorylation was observed at S20 with wildtype (WT) CHIP | – | – | – | – | – | – | – | – | – | – | – | – | – | – | – | – | – | –
B2 | – | – | displayed greater cytotoxicity and blunted the protective effects from SIL | significantly amplified | increased TTR positive aggregates | exacerbated the accumulation of TTR | co-precipitation was absent | – | – | – | – | – | – | – | – | – | – | – | – | –
B3 | – | – | – | – | – | exacerbated the accumulation of TTR | confirmed | dose-dependently inhibited | -6.31 ± 0.789 | 6.09e-06 ± 1.98e-06 | TTR accumulated | TTR accumulated | TTR accumulated | – | – | – | – | – | – | –
B4 | – | – | – | – | – | removed the protective effect | confirmed | – | -7.67 ± 0.22 | 2.34e-06 ± 8.84e-07 | cleared by Chip SE expression in a dose-dependent manner | cleared | cleared | 59 | 1.34 | ~500 | less accumulation of ubiquitinated proteins | lower mortality | reduced infarction size | improved heart function
